Assay results as given in US20230220021A1, “CYCLIC PEPTIDE INHIBITORS OF PSD-95 AND USES THEREOF” (University of Copenhagen, priority 2020, published 2023).
[ ]: non-standard residue; d: D form.

Biological target: (7× His)-PSD-95-PDZ2 wild type (UniProt P78352)
Experiment: FP competition

Chain of (7× His)-PSD-95-PDZ2 wild type (P78352 160-246): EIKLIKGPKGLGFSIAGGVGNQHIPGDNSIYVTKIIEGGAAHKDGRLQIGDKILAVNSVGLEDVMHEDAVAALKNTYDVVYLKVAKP

- Ki: 3.76 µM
- Relative Ki (Ki mut/Ki WT): 2.51
Binder: cyclo(THLETTFTGDGMPKTIRVTQ[dP]GQ) (ring closure inferred; not fully specified) [cyclic nNOS β-hairpin peptide T116M]
